Experimental findings from PMC8786865 (Nature Communications, 2022) are described below.

Residue numbers refer to the chain shown, from its start. “And” between values parts separate entries of the source, which are not always exact repeats. Equal values may be shown once.

Assay [1] addresses SARS-CoV-2 spike receptor-binding domain (RBD) (SARS-CoV-2, Wuhan-Hu-1, UniProt P0DTC2).
Assay [2] addresses T1, SARS-CoV-2 spike receptor-binding domain (SARS-CoV-2, Wuhan-Hu-1, UniProt P0DTC2).
T1 construct: also called RBD; SARS-CoV-2 RBD
The assay is described as follows: SPR; Carterra LSA array, HC200M chip; IgG captured on immobilised anti-human Fc; RBD as analyte, 7-point dilution series 300 nM to 411 pM in 1x HBSTE with 0.5 mg/mL BSA; association 5 min, dissociation 11 min; one-site binding model; two independent measurements. Conditions: both partners purified.

For assay [3], the target named is SARS-CoV-2 spike protein receptor-binding domain (RBD) (SARS-CoV-2, UniProt P0DTC2). In words: cell-based or functional assay.

B1: A2 (antibody, V domains shown)
VH: QVQLVESGAEVKKPGASVKVSCKVSGYSFTDHSIHWVRQAPGKGLEWMGGINPYTGDTIYAQKFQGRVTMTEDTSTDTAYMELSSLKSEDTAVYYCARDGYCSGGSCYSFSGYGMDVWGQGTTVTVS
VL: DIQMTQSPSSVSASVGDRVTITCRASQDIGNHLAWYQQKPGKAPKLLIYASSNLASGVPSRFSGSGSGTDFTLTISSLQPEDFANYYCHQYTTYPWTFGGGTKVEIK
As to B1, in assay [1], the binding result was “binds”.

B2: H7 (antibody, V domains shown)
VH: EVQLVQSGAEVKKPGASVKVSCKVSGYSFTDHSIHWVRQAPGKGLEWMGGINPYTGDTIYAQKFQGRVTMTEDTSTDTAYMELSSLKSEDTAVYYCARDGYDFWSGSYGMDVWGQGAQVTVS
VL: B1 VL with A50G, S51V, N53E, L54R, A55P, T92A, G100D
For B2, in assay [1], the binding result was “binds”.

B3: H9 (antibody, V domains shown)
VH: EVQLVESGAEVKKPGASVKVSCKVSGYSFTDHSIHWVRQAPGKGLEWMGGINPYTGDTIYAQKFQGRVTMTEDTSTDTAYMELSSLKSEDTAVYYCARDAYSGSYPYYYYGMDVWGQGTTVTVSS
VL: B1 VL with D28N, G30D, N31T, H32F, T92A, G100D
As for B3, the binding result in assay [1] is recorded as “binds”.

B4: E4 (antibody, V domains shown)
VH: QVQLVQSGAEVKKPGASVKVSCKVSGYSFTDHSIHWVRQAPGKGLEWMGGINPYTGDTIYAQKFQGRVTMTEDTSTDTAYMELSSLKSEDTAVYYCARDGYDFWSGSYGMDVWGQGTLVTVSS
VL: B1 VL with T92A
On to B4, for which the binding result in assay [1] is “binds”.

B5: G9 (antibody, V domains shown)
VH: B4 VH with D102G, F103D, W104Y, S105R, S107L, Q115R, L118T
VL: B1 VL with T92A
On to B5, for which the binding result in assay [1] is “binds”.

B6: H5 (antibody, V domains shown)
VH: B3 VH with E6Q, R38H, A100G, S102Y, Y105G, P106T
VL: DIQMTQSPSSVSASVGDRVTITCRASQSISTYLAWYQQKPGKAPKLLIYDASNRATGVPSRFSGSGSGTDFTLTISSLQPEDFANYYCLQYHNYPWTFGGGTKVEIK
As for B6, the binding result in assay [1] is “binds”.

B7: #41 (antibody, V domains shown)
VH: QVQLVQSGAEVKKPGASVKVSCKVSGYTSPATIHWVRQAPGKGLEWMGGISPYKGDTIYAQKFQGRVTMTEDTSTDTAYMELSSLKSEDTAVYYCAKDSYYYDSSGSGLGGGFDYWGQGTLVTVSS
VL: B6 VL with Q27R, S28D, T31S, D50G, N53T, T56S, H92S, N93I
As for B7, the dissociation constant (Kd) in assay [2] is 0.257 nM and 0.333 nM.

B8: #41 (antibody, V domains shown)
VH: B7 VH
VL: B6 VL with Q27R, S28D, T31S, D50G, N53T, T56S, H92S, N93I
Take B8: the “SARS-CoV-2 pseudovirus IC50 (neutralisation, HeLa-hACE2 cells); pair blocked: ACE2 with RBD” value in assay [3] stood at 3.7 ng/mL.
